Experimental data from publication PMC3762362.

Biological target: Endogenous bovine Arp2/3 complex, A7MB62;P61157
Test: fluorescence anisotropy competition assay
Conditions: chain shown with the change; reporter 20 nM VVCA-A462C-AF594; mixture incubated for 10 min prior to measurement; parent: est. 6.0 nM; read off a plot

- Kd: 20 nM
B1: GST-VCA (GST fusion of N-WASP residues 432–505), O00401 I467A (protein)
chain: SGRDALLDQIRQGIQLKSVADGQESTPPTPAPTSGAVGALMEVMQKRSKAIHSSDEDEDEDDEEDFEDDDEWED
